Patent US5948668

What was measured:
[1] = target: recombinant rat procarboxypeptidase B expressed by plasmid pλProCPB (rat)
[2] = target: recombinant rat procarboxypeptidase B with the Cys290->Ser mutation, expressed by plasmid pProCPB-C (rat)

For trypsin (enzyme), the Specific Activity (u/mg) of CPB (Hippuryl-L-Arg substrate) after folding of ProCPB and trypsin treatment [1] was 42.9 u/mg and the Specific Activity (u/mg) of CPB-C (Hippuryl-L-Arg substrate) after folding of ProCPB-C and trypsin treatment [2] was 20.9 u/mg.
